Reference: patent US20230416326A1 (LETO LABORATORIES, published 2023)

How the values were obtained:
[1] = molecular target: T1, IL-2/15R β and γ on Mo7e cells (UniProt P14784 27-551; P31785 23-369, limits assumed); experiment: cell-based or functional assay
T1 sequence (looked up) 1: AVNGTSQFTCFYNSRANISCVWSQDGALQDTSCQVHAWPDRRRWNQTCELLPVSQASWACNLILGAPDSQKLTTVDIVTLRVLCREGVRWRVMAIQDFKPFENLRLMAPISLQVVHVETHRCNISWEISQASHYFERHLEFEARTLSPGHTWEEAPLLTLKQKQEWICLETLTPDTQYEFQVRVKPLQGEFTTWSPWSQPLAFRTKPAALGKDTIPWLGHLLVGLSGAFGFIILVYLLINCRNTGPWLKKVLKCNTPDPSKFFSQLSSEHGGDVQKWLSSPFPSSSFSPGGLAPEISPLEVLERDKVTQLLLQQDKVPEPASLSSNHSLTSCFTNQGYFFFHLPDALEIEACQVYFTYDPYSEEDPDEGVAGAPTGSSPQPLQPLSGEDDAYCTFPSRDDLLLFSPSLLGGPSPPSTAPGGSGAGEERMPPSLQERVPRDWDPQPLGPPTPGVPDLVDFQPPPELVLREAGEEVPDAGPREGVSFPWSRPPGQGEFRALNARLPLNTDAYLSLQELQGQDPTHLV
T1 sequence (looked up) 2: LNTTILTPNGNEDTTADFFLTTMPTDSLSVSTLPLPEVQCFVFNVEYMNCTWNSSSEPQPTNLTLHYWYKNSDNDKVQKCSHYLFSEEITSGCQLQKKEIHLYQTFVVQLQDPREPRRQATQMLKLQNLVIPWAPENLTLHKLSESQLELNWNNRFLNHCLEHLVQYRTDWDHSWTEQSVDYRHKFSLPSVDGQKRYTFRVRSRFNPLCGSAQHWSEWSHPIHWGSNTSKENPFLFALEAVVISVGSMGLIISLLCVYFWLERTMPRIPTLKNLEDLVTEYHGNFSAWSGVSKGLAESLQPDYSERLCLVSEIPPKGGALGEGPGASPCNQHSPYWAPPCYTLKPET

IL2/15Rβ-Fc/Fc = molecular target: T2, IL2/15Rβ-Fc/Fc (UniProt P14784 27-240); experiment: BLI (Octet RED96), receptor immobilised on sensor
T2 construct: Made in-house; The label 'Fc/Fc' is not explained; it is read here as one receptor-Fc chain paired with an Fc-only chain; also called IL2Rβ; CD122; not shown: Fc; second Fc chain implied by the label 'Fc/Fc'
Description: (§1) BLI was used to determine the affinity of a target protein for a receptor by a method with reference to (Estep, P et al., High throughput solution Based measurement of antibody-antigen affinity and epitope binning. MAbs, 2013.5 (2): p. 270-8). The receptor proteins IL-15Rα-his, IL2Rα-his, and IL2/15Rβ-Fc/Fc used in the experiment were each produced by the company of the present application, and both an IL-2 derivative without IL2Rα binding and an IL-2 complex without IL2Rα binding were prepared according to the description in Patent Publication CN111018961A. An IL-15(N72D)/Sushi-hIgG1Fc complex was prepared according to the literature (K.-p. Han et al./Cytokine 56 (2011) 804-810). A buffer was prepared according to the following formula: 10 mM HEPES, 150 mM NaCl, 3 mM EDTA, 0.1% BSA, and 0.05% tween20. Receptor proteins were each pre-immobilized in advance on a corresponding sensor. Then the steps of baseline, loading, baseline, association, and dissociation were conducted according to the established method (see Estep, P et al., High throughput solution Based measurement of antibody-antigen affinity and epitope binning. MAbs, 2013. 5 (2): p. 270-8). Data acquisition and analysis were conducted using the Fortebio Octet RED96 software Data acquisition 11.0 and Data analysis 11.0, respectively. Results are shown in Table 1 (the smaller the value, the stronger the affinity).

IL2Rα-his = molecular target: T3, IL2Rα-his (UniProt P01589 22-240, limits assumed); experiment: BLI (Octet RED96), receptor immobilised on sensor
T3 construct: Made in-house; also called interleukin-2 receptor alpha; CD25; not shown: his tag
T3 sequence (looked up): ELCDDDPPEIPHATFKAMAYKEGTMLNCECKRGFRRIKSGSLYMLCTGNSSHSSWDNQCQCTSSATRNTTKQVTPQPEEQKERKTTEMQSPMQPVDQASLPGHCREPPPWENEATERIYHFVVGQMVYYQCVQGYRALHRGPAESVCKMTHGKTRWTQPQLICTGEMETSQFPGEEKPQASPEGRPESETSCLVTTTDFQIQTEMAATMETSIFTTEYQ
Description: as §1

IL-15Rα-his = molecular target: T4, IL-15Rα-his (Homo sapiens (Human), UniProt Q13261 31-205, limits assumed); experiment: BLI (Octet RED96), receptor immobilised on sensor
T4 construct: also called interleukin-15 receptor alpha; not shown: his tag
Description: as §1

Sushi-hIgG4Fc = molecular target: T5, Sushi-hIgG4Fc; experiment: co-expression in HEK293, purification, SEC-HPLC
T5 construct: IL15Rα Sushi domain fused to human IgG4 Fc; also called Sushi-Fc
Description: The IL-2/15 chimera 1 was co-expressed with each of the Sushi-hIgG1Fc, Sushi-hIgG4Fc, and Sushi-mlgg2aa.1Fc, and heterodimer complexes could be generated during expression, which were respectively named as complex 1, complex 2, and complex 3 and all carried an Fc tag. Mabselect sure (Protein A, GE healthcare) was used for affinity purification, and a purification method was in accordance with instructions of a purification packing. Then further purification was conducted by gel filtration chromatography (GFC) (Superdex200 […], GE Healthcare) to obtain a protein with high purity, and the aggregate was removed. The purity analysis was conducted using a high-performance liquid chromatography (HPLC) molecular sieve column (SEC-HPLC), and the results are shown in FIGS. 1A-1C.

| Binder | EC50 (nM), promotion of Mo7e cell proliferation [1] [nM] | Kd (IL2/15Rβ-Fc/Fc) [nM] | binding result (IL2Rα-his) | binding result (IL-15Rα-his) | Kd (IL-15Rα-his) [nM] | binding result (Sushi-hIgG4Fc) |
| --- | --- | --- | --- | --- | --- | --- |
| Complex 3 (heterodimer complex of IL-2/15 chimera 1 and Sushi-mIgG2aa.1Fc) (Fc fusion, also called IL-2/15 chimera 1-Sushi-Fc) chain 1: APTSSSTKKTQLQLEHLLLDLQMILNGIQSMHIDATLYTESDVHPSCKVTAMKCFLLELQVISLESGDASIHDTVENLIILANNSLSSNGNVTESGCKECEELEEKNIVEFLNRFITFAQSIISTLT chain 2: ITCPPPMSVEHADIWVKSYSLYSRERYICNSGFKRKAGTSSLTECVLNKATNVAHWTTPSLKCIREPRGPTIKPCPPCKCPAPNAEGAPSVFIFPPKIKDVLMISLSPIVTCVVVDVSEDDPDVQISWFVNNVEVHTAQTQTHREDYNSTLRVVSALPIQHQDWMSGKEFKCKVNNKQLPSSIERTISKPKGSVRAPQVYVLPPPEEEMTKKQVTLTCMVTDFMPEDIYVEWTNNGKTELNYKNTEPVLDSDGSYFMYSKLRVEKKNWVERNSYSCSVVHEGLHNHHTTKSFSRTPGK | 0.319 | 0.512 | no binding (tested: 100 nM) | no binding (tested: 100 nM) |  |  |
| IL-2/15 chimera 1 (ligand, also called modified IL-2 molecule) APTSSSTKKTQLQLEHLLLDLQMILNGIQSMHIDATLYTESDVHPSCKVTAMKCFLLELQVISLESGDASIHDTVENLIILANNSLSSNGNVTESGCKECEELEEKNIVEFLNRFITFAQSIISTLT | 2.25 | 973 | no binding (tested: 100 nM) |  | 3.89 |  |
| IL-2/15 chimera 2 (ligand, Chimera 1 with F at position 115 mutated back to W; position 115 corresponds to position 121 of natural IL-2) APTSSSTKKTQLQLEHLLLDLQMILNGIQSMHIDATLYTESDVHPSCKVTAMKCFLLELQVISLESGDASIHDTVENLIILANNSLSSNGNVTESGCKECEELEEKNIVEFLNRWITFAQSIISTLT |  |  |  |  |  | binds |
